Test [1] concerns the target human 4-1BB (human) (UniProt Q07011). The test can be described thus: flow cytometry on CHO-K1 cells expressing 4-1BB. Background: Flow cytometry measures light scatter and fluorescence of single cells or particles in a stream.
The target is the same in test [2]. The experiment in a line: cell-based or functional assay.

human 4-1BB (human), sequence (Q07011 24-255): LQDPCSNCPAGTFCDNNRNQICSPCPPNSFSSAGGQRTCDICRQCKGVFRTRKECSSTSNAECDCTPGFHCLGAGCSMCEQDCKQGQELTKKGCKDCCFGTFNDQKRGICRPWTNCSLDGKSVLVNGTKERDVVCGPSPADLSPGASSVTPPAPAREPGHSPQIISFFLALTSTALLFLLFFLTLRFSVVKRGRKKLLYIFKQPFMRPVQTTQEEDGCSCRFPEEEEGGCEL

In general, EC50 refers to the concentration giving half of the maximal effect. Read a high EC50 as weaker potency. Turning to WBP342-BMK3.hIgG4 (antibody), in test [1], the 50% effective concentration (EC50) was found to be 123 pM and the Top (MFI) came to 1120 MFI. Moreover, in test [2], the reporter gene assay (NFkB luciferase), EC50 amounted to 330 pM and the reporter gene assay (NFkB luciferase), Top (RLU) was 1.09e+06 RLU.

Source of the values: patent US20240317872A1.
